Results: EP4454706A1 (Universität Stuttgart, dated 2024)
Like-named read-outs stand apart in the source and are kept apart here.

Columns and labels:
[1] = target: T1, EGFR-His fusion protein comprising the extracellular domain (aa 25 - 645) of human EGFR (human, UniProt P00533 25-645); experiment: ELISA, coated EGFR-His
T1 construct: also called His-tagged extracellular domain of EGFR wt

[2] = target: T1, EGFR-His fusion protein comprising the …; experiment: ELISA, coated human EGFR
[3] = target: T2, human EGFR (aa 1 - 1,210), on cells (human, UniProt P00533 25-1210); experiment: flow cytometry, DiFi cells
T2 construct: also called EGFR wt; NIH-3T3 + EGFR wt

[4] = target: T2, human EGFR (aa 1 - 1,210), on cells; experiment: flow cytometry, FaDu cells
[5] = target: T2, human EGFR (aa 1 - 1,210), on cells; experiment: flow cytometry, A431 cells
[6] = target: T2, human EGFR (aa 1 - 1,210), on cells; experiment: flow cytometry, DiFi cells; remark: listed apart in the source
[7] = target: T2, human EGFR (aa 1 - 1,210), on cells; experiment: flow cytometry, FaDu cells; remark: listed apart in the source
[8] = target: T1, EGFR-His fusion protein comprising the …; experiment: ELISA, coated human EGFR-His
[9] = target: T3, EGFR-His fusion protein comprising the extracellular domain of murine EGFR (aa 25 - 647) (murine, UniProt Q01279 25-647); experiment: ELISA, coated murine EGFR-His
T3 construct: Bought protein; also called mouse EGFR; Sino Biological 51091-M08H

[10] = target: T2, human EGFR (aa 1 - 1,210), on cells; experiment: flow cytometry, LIM1215 cells
[11] = target: T4, EGFR-His fusion protein comprising the extracellular domain of cynomolgus monkey EGFR (aa 1 - 645) (cynomolgus monkey, UniProt P55245 25-645 (rhesus entry)); experiment: ELISA, coated cynomolgus monkey EGFR-His
T4 construct: Bought protein; also called Sino Biological SIN-90285-C08H-50

[12] = target: T5, EGFR-moIgG2a-Fc fusion protein comprising the extracellular domain (aa 25 - 645) of human EGFR (human); experiment: ELISA, coated EGFR-moIgG2a-Fc
T5 construct: also called EGFR wt

EGFR-moIgG2a-Fc K489E = target: T6, EGFR-moIgG2a-Fc K489E (human); experiment: ELISA, coated mutant EGFR
T6 construct: See m39

[13] = target: T5, EGFR-moIgG2a-Fc fusion protein …; experiment: ELISA, coated EGFR-moIgG2a-Fc; remark: listed apart in the source
[14] = target: T3, EGFR-His fusion protein comprising the …; experiment: ELISA, coated murine EGFR-His; remark: listed apart in the source
EGFR-moIgG2a-Fc G434A = target: T7, EGFR-moIgG2a-Fc G434A (human); experiment: ELISA, coated mutant EGFR-moIgG2a-Fc
T7 construct: also called EGFR G434A

EGFR-moIgG2a-Fc Q435P = target: T8, EGFR-moIgG2a-Fc Q435P (human); experiment: ELISA, coated mutant EGFR-moIgG2a-Fc
T8 construct: see m31; also called EGFR Q435P

EGFR-moIgG2a-Fc F436A = target: T9, EGFR-moIgG2a-Fc F436A (human); experiment: ELISA, coated mutant EGFR-moIgG2a-Fc
T9 construct: see m31; also called EGFR F436A

EGFR-moIgG2a-Fc I462A = target: T10, EGFR-moIgG2a-Fc I462A (human); experiment: ELISA, coated mutant EGFR-moIgG2a-Fc
T10 construct: see m31; also called EGFR I462A

[15] = target: T11, EGFR-moIgG2a-Fc F436A/I462A (human); experiment: ELISA, coated mutant EGFR-moIgG2a-Fc
T11 construct: see m31; also called double mutant F436A/I462A

[16] = target: T2, human EGFR (aa 1 - 1,210), on cells; experiment: cell-based or functional assay
[17] = target: T2, human EGFR (aa 1 - 1,210), on cells; experiment: cell-based or functional assay; remark: listed apart in the source
[18] = target: T2, human EGFR (aa 1 - 1,210), on cells; experiment: flow cytometry, FaDu cells; remark: listed apart in the source
[19] = target: T2, human EGFR (aa 1 - 1,210), on cells; experiment: flow cytometry, FaDu cells; remark: listed apart in the source
[20] = target: T2, human EGFR (aa 1 - 1,210), on cells; experiment: flow cytometry, SW620 cells
CD3 on Jurkat cells = target: T12, CD3 on Jurkat cells (human, UniProt P07766 23-207); experiment: flow cytometry, Jurkat cells
T12 construct: whole, on cells; also called CD3-expressing Jurkat

[21] = target: T2, human EGFR (aa 1 - 1,210), on cells; experiment: flow cytometry, LIM1215 cells; remark: listed apart in the source
[22] = target: T2, human EGFR (aa 1 - 1,210), on cells; experiment: flow cytometry, HCT-116 cells
[23] = target: T13, EGFR-moIgG2a-Fc F381A/H383A (human); experiment: ELISA, coated mutant EGFR-moIgG2a-Fc
T13 construct: also called F381/H383

[24] = target: T3, EGFR-His fusion protein comprising the …; experiment: ELISA, coated murine EGFR-His, 10 nM IgG
[25] = target: T5, EGFR-moIgG2a-Fc fusion protein …; experiment: competition ELISA, coated EGFR-moIgG2a-Fc; 1 nM IgG against 200 nM Fab-His
EGFR-moIgG2a-Fc S484A = EGFR-moIgG2a-Fc S484A (human); experiment: ELISA, coated mutant EGFR-moIgG2a-Fc
EGFR-moIgG2a-Fc K487A = EGFR-moIgG2a-Fc K487A (human); experiment: ELISA, coated mutant EGFR-moIgG2a-Fc

| EC50 [1] [pM] | EC50 [2] [pM] | EC50 [3] [pM] | EC50 [4] [pM] | EC50 [5] [pM] | EC50 [6] [pM] | EC50 [7] [pM] | EC50 [8] [pM] | EC50 [9] [pM] | EC50 [10] [pM] | EC50 [11] [pM] | binding result [13] | binding result [14] | binding result (EGFR-moIgG2a-Fc G434A) | binding result (EGFR-moIgG2a-Fc Q435P) | binding result (EGFR-moIgG2a-Fc F436A) | binding result (EGFR-moIgG2a-Fc I462A) | binding result [15] | Binder | further results |
| --- | --- | --- | --- | --- | --- | --- | --- | --- | --- | --- | --- | --- | --- | --- | --- | --- | --- | --- | --- |
| 160 | 590 | 640 | 230 | 1240 | 640 | 260 | 360 | 380 | 90 | 690 |  |  |  |  |  |  |  | IgG1 YU250-A02 (antibody, V domains shown, also called IgG YU250-A02) VH: QVQLQESGGGVVQPGGSLRLSCAASGFTFSSYGMHWVRQAPGKGLEWVAFIRYDGSNKYYADSVKGRFTISRDNSKNTLYLQMNSLRAEDTAVYYCAKDGNSGYDSMDYWGQGTLVTVSS VL: QSVLTQPPSVSGAPGQRVTISCSGGSSNVGRNGVNWFQHLPEKAPKLLIYYDAFLSSGVSDRFSGSKSGTSASLAIRGLQSEDEADYYCASWDDSLTGWVFGGGTKLTVLG |  |
| 190 | 780 | 780 | 290 | 1560 | 730 | 270 | 280 | 450 | 90 | 580 |  |  |  |  |  |  |  | IgG1 YU250-H10 (antibody, also called IgG YU250-H10) light: QSVLTQPPSVSGAPGQRVTISCSGGSSNVGRNGVNWFQHLPEKAPKLLIYYDAFLSSGVSDRFSGSKSGTSASLAIRGLQSDDEADYYCAAWDDSLYSWVFGGGTNLTVLGQPKAAPSVTLFPPSSEELQANKATLVCLISDFYPGAVTVAWKADSSPVKAGVETTTPSKQSNNKYAASSYLSLTPEQWKSHRSYSCQVTHEGSTVEKTVAPTECS heavy: not shown | EC50 [12]: 270 pM |
|  |  |  |  |  |  |  |  |  |  |  | binds | no binding (tested: 10 nM) | binds | binds | binds | binds | binds | Panitumumab (antibody, human IgG1, kappa, V domains shown, also called IgG Panitumumab) VH: QVQLQESGPGLVKPSETLSLTCTVSGGSVSSGDYYWTWIRQSPGKGLEWIGHIYYSGNTNYNPSLKSRLTISIDTSKTQFSLKLSSVTAADTAIYYCVRDRVTGAFDIWGQGTMVTVSS VL: DIQMTQSPSSLSASVGDRVTITCQASQDISNYLNWYQQKPGKAPKLLIYDASNLETGVPSRFSGSGSGTDFTFTISSLQPEDIATYFCQHFDHLPLAFGGGTKVEIKR | binding result (EGFR-moIgG2a-Fc K489E): binds |
|  |  |  |  |  |  |  |  |  |  |  |  |  |  |  |  |  |  | Fab-eIg YU250-H10xhuU3 (bispecific antibody, also called bispecific trivalent EGFRxCD3 Fab-eIg YU250-H10) light: QSVLTQPPSVSGAPGQRVTISCSGGSSNVGRNGVNWFQHLPEKAPKLLIYYDAFLSSGVSDRFSGSKSGTSASLAIRGLQSDDEADYYCAAWDDSLYSWVFGGGTNLTVLGQPKAAPSVTLFPPSSEELQANKATLVCLISDFYPGAVTVAWKADSSPVKAGVETTTPSKQSNNKYAASSYLSLTPEQWKSHRSYSCQVTHEGSTVEKTVAPTECS chain 1: not shown chain 2: not shown chain 3: not shown | IC50 for cytotoxicity, FaDu + PBMCs (E:T 10:1) [16]: 7 pM; IC50 for cytotoxicity, LIM1215 + PBMCs (E:T 10:1) [16]: 3 pM; IC50 for cytotoxicity, FaDu + PBMCs (E:T 10:1) [17]: 4.8 pM; IC50 for cytotoxicity, HCT-116 + PBMCs (E:T 10:1) [17]: 3 pM; IC50 for cytotoxicity, SW620 + PBMCs (E:T 10:1) [17]: 4.9 pM; EC50 [18]: 760 pM; EC50 [19]: 320 pM; EC50 [20]: 30 pM; EC50 (CD3 on Jurkat cells): > 10000 pM; EC50 [21]: 270 pM; EC50 [22]: 130 pM |
|  |  |  |  | 1670 | 1100 | 470 |  |  | 150 |  |  |  | binds | binds | binds | binds | binds | IgG GC1118 (antibody, V domains shown, also called GC118) VH: EVQLVESGGGVVQPGGSLRLSCAASGFTFSDYDMSWIRQAPGKGLEWVSGILGGSERSYYRDSVKGRFTISRDNSRKTLYLQMNSLRAEDTAVYYCARHGSPGYTLYAWDYWGQGTTVTVSS VL: DIVMTQTPLSLPVTPGEPASISCRSNQDLTHSNGNTYLEWYLQKPGQSPRLLIYKVSNRFSGVPDRFSGSGAGTDFTLRISRVEAEDVGVYYCMQGTHWPWTFGQGTKVDIKR | binding result [23]: no binding; binding result [24]: binds; binding result [25]: binds |
|  |  |  |  | 1680 | 950 | 340 |  |  | 120 |  | binds | no binding (tested: 10 nM) | binds | binds | binds | binds | binds | Matuzumab (antibody, human IgG1, kappa, V domains shown, also called IgG Matuzumab) VH: QVQLVQSGAEVKKPGASVKVSCKASGYTFTSHWMHWVRQAPGQGLEWIGEFNPSNGRTNYNEKFKSKATMTVDTSTNTAYMELSSLRSEDTAVYYCASRDYDYDGRYFDYWGQGTLVTVSS VL: DIQMTQSPSSLSASVGDRVTITCSASSSVTYMYWYQQKPGKAPKLLIYDTSNLASGVPSRFSGSGSGTDYTFTISSLQPEDIATYYCQQWSSHIFTFGQGTKVEIKR | binding result (EGFR-moIgG2a-Fc S484A): no binding; binding result (EGFR-moIgG2a-Fc K487A): no binding |
